Reference: patent US20170306031A1 (NGM BIOPHARMACEUTICALS, published 2017)
Changes are numbered by the printed parent chain.

T1: mouse GFRAL expressed on cells (mouse, UniProt Q6SJE0 20-393)
T1 sequence: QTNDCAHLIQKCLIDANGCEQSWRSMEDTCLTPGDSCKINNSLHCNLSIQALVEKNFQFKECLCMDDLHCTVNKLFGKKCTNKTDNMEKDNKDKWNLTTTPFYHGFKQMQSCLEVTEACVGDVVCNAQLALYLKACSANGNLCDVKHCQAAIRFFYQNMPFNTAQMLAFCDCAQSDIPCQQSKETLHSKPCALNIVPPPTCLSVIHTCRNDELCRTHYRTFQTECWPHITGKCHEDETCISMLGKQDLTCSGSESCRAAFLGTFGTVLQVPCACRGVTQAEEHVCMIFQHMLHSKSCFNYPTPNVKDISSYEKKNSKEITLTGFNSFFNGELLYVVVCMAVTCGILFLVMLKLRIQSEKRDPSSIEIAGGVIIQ

T2: human GFRAL expressed on cells (human, UniProt Q6UXV0 20-394)
T2 sequence: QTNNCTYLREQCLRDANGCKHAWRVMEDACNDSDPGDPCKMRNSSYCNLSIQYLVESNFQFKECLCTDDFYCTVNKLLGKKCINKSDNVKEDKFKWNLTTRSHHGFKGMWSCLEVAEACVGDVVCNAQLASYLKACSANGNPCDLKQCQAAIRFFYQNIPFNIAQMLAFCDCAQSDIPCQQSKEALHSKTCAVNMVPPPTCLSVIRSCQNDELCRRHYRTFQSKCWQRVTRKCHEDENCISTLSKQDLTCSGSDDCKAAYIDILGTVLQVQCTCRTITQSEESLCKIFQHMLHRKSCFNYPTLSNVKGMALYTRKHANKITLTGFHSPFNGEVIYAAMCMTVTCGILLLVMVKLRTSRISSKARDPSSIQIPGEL

T3: mouse GFRAL (analyte in Biacore assays) (mouse, UniProt Q6SJE0 20-349, limits assumed)
T3 construct: injected in solution over captured antibody
T3 sequence: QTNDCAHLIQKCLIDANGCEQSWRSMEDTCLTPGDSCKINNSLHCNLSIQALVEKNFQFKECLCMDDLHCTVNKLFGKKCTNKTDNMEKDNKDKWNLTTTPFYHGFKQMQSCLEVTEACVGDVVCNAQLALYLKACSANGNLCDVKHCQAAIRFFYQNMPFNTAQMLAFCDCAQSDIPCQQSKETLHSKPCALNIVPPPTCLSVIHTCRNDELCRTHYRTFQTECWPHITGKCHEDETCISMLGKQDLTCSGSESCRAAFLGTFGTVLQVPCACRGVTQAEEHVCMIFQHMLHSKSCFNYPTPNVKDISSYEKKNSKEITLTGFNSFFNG

T4: human GFRAL (analyte in Biacore assays) (human, UniProt Q6UXV0 19-351, limits assumed)
T4 construct: injected in solution over captured antibody; also called hGFRAL
T4 sequence: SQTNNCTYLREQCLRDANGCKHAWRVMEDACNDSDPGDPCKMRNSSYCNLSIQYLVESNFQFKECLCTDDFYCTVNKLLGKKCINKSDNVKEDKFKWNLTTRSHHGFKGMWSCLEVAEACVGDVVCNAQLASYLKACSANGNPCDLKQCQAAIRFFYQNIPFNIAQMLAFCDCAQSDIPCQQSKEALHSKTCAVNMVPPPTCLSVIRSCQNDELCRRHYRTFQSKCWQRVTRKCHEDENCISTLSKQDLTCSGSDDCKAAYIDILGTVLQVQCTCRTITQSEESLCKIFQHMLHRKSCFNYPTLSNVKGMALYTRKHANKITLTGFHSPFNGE

B1: antibody designated 8D8 (antibody, V domains shown)
VH: QVQLKESGPGLVAPSQSLSITCTVSGFSLSRYSVHWVRQPPGKGLEWLGMIWGFGSTDYNSALKSRLSITKDNSKSQFFLKMNSLQTDDTAMYYCARIHTTAGSYWGQGTLVTVSA
VL: DIVMTQSQKFMSTSIGDRVSVTCKASQNVGTNVAWYQQKPGQSPKALVYSTSYRYSGVPDRFTGSGSGTDFTLTISNVQSEDLAEYFCHQYNSYPLTFGAGTKLELK
notes: mouse hybridoma monoclonal
B2: antibody designated 12A3 (antibody, V domains shown)
VH: QIQLVQSGPELKKPGETVKISCKASGYPFTIYGMNWVEQAPGKGLKWMGWINTYSGVPTYADDFKGRFAFSLETSASTAYLQINNLKDEDTATYFCASATGNYWGQGTTLTVSS
VL: DIQMTQSPSSLSASLGERVSLTCRASQDIGSSLNWLQQEPDGTIKRLIYATSSLDSGVPKRFSGSRSGSDYSLTISSLESEDFVDYYCLQYASSPYTFGGGTKVEIK
notes: mouse hybridoma monoclonal
B3: antibody designated 25M22 (antibody, V domains shown)
VH: QVQLQQSGPDLVKPGASVKISCKASGYTFTSYWVNWMKQRPGKGLEWIGRIYPGDGDTNYNGKFKGKATLTADKSSSTAYMQLSSLTSEDSAVYFCARAYLLRLRRTGYYAMDYWGQGTSVTVSS
VL: DVVLTQTPLSLPVNIGDQASISCKSTKSLLNSDEFTYLDWYLQKPGQSPQLLIFLVSNRFSGVPDRFSGSGSGTDFTLKISRVEAEDLGVYYCFQSNYLPYTFGGGTKLEIK
notes: mouse hybridoma monoclonal
B4: antibody designated 19K19 (antibody, V domains shown)
VH: B3 VH with T28A, V34M, M37V
VL: B3 VL with F54Y
notes: mouse hybridoma monoclonal
B5: antibody designated 2B8 (antibody, V domains shown)
VH: QIQLVQSGPELKKPGETVKISCKASGYTFTTYGMSWVKQAPGKIFKWMGWINTYSGVPTFVDDFRGRFAFSLETSASTAYLQIGNLKNEDTATYFCARRSSYYPYWYFDVWGTGTTVTVSS
VL: DIQMTQSPASLSASVGETVTITCRPSENIYSYLTWFQQEQGKSPQLLVYNAQTLAEGVPSRFSGSGSGTHFSLKINSLQPEDFGTYYCQHYYGYPFTFGSGTKLEIK
notes: mouse hybridoma monoclonal
B6: antibody designated 2B3 (antibody, V domains shown)
VH: EVKLVESGGGLVQPGGSLKLSCAASGFTFSDYFMFWVRQTPEKRLEWVAYISNDGDSTYYPDTVQGRFTISRDNAKNTLYLQMSRLRSEDTAMYYCTRQGAQATLDYWGQGTTLTVSS
VL: QIVLTQSPAIMSASLGEEITLTCSASSSVFYMHWYQQKSGTSPKLLIYSTSNLASGIPSRFSGSGSGTFYSLTISSVEAEDAADYYCHQWSSTFGGGTKLEIK
B7: antibody designated 24G2 (antibody, V domains shown)
VH: QVQLQQSGAELLKPGASVKLSCKASGYTFTTYWMHWVKQRPGQGLEWIGMIHPNSGSSNYNEKFKNKATLTVDKSSSTAYMQLSSLTSEDSAVYFCARSDYGFIPYFDYWGQGTTLTVSS
VL: DILLTQSPAILSVSPGERVSFSCRASQSIGTSIHWYQQRTNGSPRLLIKYASESISGIPSRFSGSGSGTDFTLIINSVESEDIADYYCQQSNSWPTFTFGAGTKLELK
notes: mouse hybridoma monoclonal
B8: antibody designated 1C1 (antibody, V domains shown)
VH: QMQLKQSGPGLVQPSQSLSITCTVSGFSLNDYGVHWIRQSPGKGLEWLGVIWSGGRTDYNAAFISRLSISKDNSKSQVFFKMSSLQPQDTAIYYCARWALYFLYGGSMDYWGQGTSVTVSS
VL: DVVLTQTPLSLPVSPGDQASISCRSSQSLVHSSGITYLHWYLQKPGQSPKLLIYKLSNRFSGVPDRFSGSGSGTDFTLKISRVEAEDLGVYFCSQSTHVPPWTFGGGTKLEIK
notes: mouse hybridoma monoclonal
B9: antibody designated 2A9 (antibody, V domains shown)
VH: EVKLVESGGGLVKPGGSLKLSCAASGFTFSTYAMSWVRQTPEKRLEWVASITSGGTTYYTDSVKGRFTISRDNARNILYLQMSSLRSEDTAMYYCARDGNFYYYGMDYWGQGTSVTVSS
VL: DIVMTQSQKFMSTSVGDRVSITCKASQNVGTAVAWYQQKPGQSPKILIYSASNRFTGVPDRFTGSGSGTDFTLTISNMQSEDLADYFCQQYSSYFTFGGGTKLELK
notes: mouse hybridoma monoclonal
B10: antibody designated 5A20 (antibody, V domains shown)
VH: QVQLQQSGPELMKPGASVILSCKAIGYTFTDYWIEWVKERPGHGLEWIGEILLGSDSIHFNEKFKGKATISADTSSNTAYMQLSSLTTEDSAIYYCVRQDWNWYFDVWGTGTTVTVSS
VL: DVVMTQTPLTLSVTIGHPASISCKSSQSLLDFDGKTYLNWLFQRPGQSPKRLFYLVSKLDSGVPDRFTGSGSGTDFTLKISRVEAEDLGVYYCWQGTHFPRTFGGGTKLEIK
notes: mouse hybridoma monoclonal
B11: antibody designated 22N5 (antibody, V domains shown)
VH: QNQLVQSGPELKKPGEIVKISCKTSGYTFTDYSMHWVKKTPGKGFKWMGWINTETGEPTYADDFKGRFAFSLETSANTAHLQITNLKNEDTATYFCVKGTLNYWGQGTTLTVSS
VL: DIKMTQSPSSMYASLGERVTITCKASQDIKSYLNWFQQKPGKSPKTLIYRTKRLVDGVPSRFSGSGSGQDYSLTVSSLEYDDVGIYYCLQYVEFPLTFGDGTKLELK
notes: mouse hybridoma monoclonal

What follows are binders tested against T1, mouse GFRAL expressed on cells (assay: cell-based or functional assay).

IC50, ELK1-luciferase reporter (mGFRAL/mRET) [nM] | Binder
1.42 | B1
0.933 | B2
1.11 | B3
0.895 | B4
2.45 | B5
7.76 | B6
8.32 | B7
1.19 | B8
7.87 | B9
0.6 | B10
2.6 | B11

Each binder was assayed against T2, human GFRAL expressed on cells (assay: cell-based or functional assay).

IC50, ELK1-luciferase reporter (hGFRAL/hRET) [nM] | Binder
2.11 | B1
4.99 | B2
2.89 | B3
3.88 | B4
1.92 | B5
7.12 | B6
18.9 | B7
8.64 | B8
3.71 | B9
3.19 | B10
7.74 | B11

Molecular target: T2, human GFRAL expressed on cells
Assay: cell-based or functional assay
Remark: another data set of the same source

IC50, ERK phosphorylation in U2OS hGFRAL/hRET cells [nM] | Binder
0.63 | B1
0.54 | B2
0.53 | B3
0.61 | B4
0.22 | B5
1.48 | B6
1.86 | B7
0.61 | B8
0.94 | B9
1.8 | B10
0.9 | B11

Each binder was assayed against T3, mouse GFRAL (analyte in Biacore assays) (assay: Biacore SPR, antibody captured, GFRAL injected).
Description: (§1) In addition, the binding affinity of antibodies to human and mouse GFRAL were measured. For example, antibodies were rank ordered based on their binding affinity to human GFRAL and mouse GFRAL by low resolution KD measurement by Biacore. Briefly, an anti-mouse Fc antibody (Sigma-Aldrich, St. Louis, Mo.) was immobilized on all four flow cells of a CM5 chip using amine coupling reagents (GE Healthcare LifeSciences, Piscataway, N.J.). Purified antibodies were captured (˜100 RUs) on flow cells 2, 3 and 4 using flow cell 1 as a reference. This was followed by injection of human or mouse GFRAL (25 nM in PBS-P buffer) at a flow rate of 70 μL/m in and monitoring the binding kinetics at 25° C.
(§2) Binding affinity measurements were also made in additional Biacore based assays. For example, equilibrium dissociation constant (KD) measurements were carried out with purified antibodies to evaluate their binding to human GFRAL or mouse GFRAL. As mentioned above, anti-mouse Fc antibody (Sigma-Aldrich, St. Louis, Mo.) was immobilized on all four flow cells of a CM5 chip using amine coupling reagents (GE Healthcare LifeSciences, Piscataway, N.J.). Purified antibodies were captured (˜100 RUs) on flow cells 2, 3 and 4 using flow cell 1 as a reference. This was followed by injection of human or mouse GFRAL in PBS-P buffer) at a flow rate of 70 μL/min and the binding kinetics were evaluated at 25° C.

Kd [nM] | koff [s⁻¹] | Binder
8.17 | 0.00281 | B1
5.7 | 0.00216 | B2
4.2 | 0.0001 | B3
4.7 | 0.0034 | B4
3.76 | 0.013 | B5
5.02 | 0.00173 | B7
3.68 | 0.0025 | B8
3.6 | 0.0029 | B9
< 0.1 | 0.0004 | B10
3.47 | 0.000943 | B11

These binders were tested against T4, human GFRAL (analyte in Biacore assays) (assay: Biacore SPR, antibody captured, GFRAL injected).
Description: as §1, §2

Kd [nM] | koff [s⁻¹] | Binder
0.46 | 0.000124 | B1
< 0.1 | ~1e-05 | B2
< 0.1 | ~1e-05 | B3
0.21 | 0.000135 | B4
0.73 |  | B5
1.4 | 0.000696 | B7
< 0.1 |  | B8
0.25 | 0.000153 | B9
0.081 | 3.32e-05 | B10
0.21 | 0.000132 | B11
